Laboratory results taken from patent US20200123221A1 (published 2020).

Tests used:
[1] = target: T1, PRAME (PRAME-004) peptide on HLA-A*02:01 (human); test: IFN-gamma release; RNA-electroporated CD8+ T cells; T2 cells loaded with 10 µM to 10 pM peptide (FIG. 17); full-length, on cells
T1 peptide: SLLQHLIGL

[2] = target: T1, PRAME (PRAME-004) peptide on HLA-A*02:01; test: IFN-gamma release; RNA-electroporated CD8+ T cells; T2 cells loaded with 10 µM to 10 pM peptide (FIG. 18); full-length, on cells
[3] = target: T1, PRAME (PRAME-004) peptide on HLA-A*02:01; test: multimer staining

B1: R16P1E8 (TCR, V domains shown)
Valpha: QKEVEQDPGPLSVPEGAIVSLNCTYSNSAFQYFMWYRQYSRKGPELLMYTYSSGNKEDGRFTAQVDKSSKYISLFIRDSQPSDSATYLCAMSEAAGNKLTFGGGTRVLVKP
Vbeta: EAGVAQSPRYKIIEKRQSVAFWCNPISGHATLYWYQQILGQGPKLLIQFQNNGVVDDSQLPKDRFSAERLKGVDSTLKIQPAKLEDSAVYLCASSYTNQGEAFFGQGTRLTVV
- EC50 of peptide [1]: ~1000 nM

B2: R17P1D7 (TCR, V domains shown)
Valpha: AQTVTQSQPEMSVQEAETVTLSCTYDTSESDYYLFWYKQPPSRQMILVIRQEAYKQQNATENRFSVNFQKAAKSFSLKISDSQLGDAAMYFCAYRWAQGGSEKLVFGKGTKLTVNP
Vbeta: EADIYQTPRYLVIGTGKKITLECSQTMGHDKMYWYQQDPGMELHLIHYSYGVNSTEKGDLSSESTVSRIRTEHFPLTLESARPSHTSQYLCATELWSSGGTGELFFGEGSRLTVL
- EC50 of peptide [2]: 1.83 nM

B3: R17P1A9 (TCR, V domains shown)
Valpha: QKEVEQNSGPLSVPEGAIASLNCTYSDRGSQSFFWYRQYSGKSPELIMSIYSNGDKEDGRFTAQLNKASQYVSLLIRDSQPSDSATYLCAVLNQAGTALIFGKGTTLSVSS
Vbeta: DSGVTQTPKHLITATGQRVTLRCSPRSGDLSVYWYQQSLDQGLQFLIQYYNGEERAKGNILERFSAQQFPDLHSELNLSSLELGDSALYFCASSAETGPWLGNEQFFGPGTRLTVL
- binding result [3]: recognises
